Measurements taken from the DeepSol protein solubility set.

assay: soluble on expression in E. coli; label from the status in PepcDB or PDB records

| Sequence | soluble on expression in E. coli |
| --- | --- |
| MHDNTIKSISKDYFDYLQTESKFIPLENETIEFYSPIVDYFGDSISVNISFSGDRYKLTDHGETLWNMEQLGIDLTSNKKQKKYQLLNNIVQNYSLVIENKHINFYTNRINLSQAIHDYVLAISEISYLGILKKENIKSLFKDEVMQYFLSNRKIYPNIFPEFKVEGKSKLIHSFEAVFPGEATEYVKTIKRIDKNNAKNVLFDWNDVEIHRNKNFDSNARLNIITEQQDDISEAVSTMLSQYNVEVFSFENKKQLEEKFSNV | not soluble |
| MHENQQPQTEAFELSAAEREAIEHEMHHYEDPRAASIEALKIVQKQRGWVPDGAIHAIADVLGIPASDVEGVATFYSQIFRQPVGRHVIRYCDSVVCHINGYQGIQAALEKKLNIKPGQTTFDGRFTLLPTCCLGNCDKGPNMMIDEDTHAHLTPEAIPELLERYK | not soluble |
| MHESVTANIENVKKVAHHIQKLTSIVPEIGIICGSGLGKLADGVKDKITIPYTKIPNFPQTSVVGHSGNLIFGTLSGRKVVVMQGRFHMYEGYSNDTVALPIRVMKLLGVKILMVSNAAGGLNRSLKLGDFVILKDHIYLPGLGLNNILVGPNQEAFGTRFPALSNAYDRDLRKLAVQVAEENGFGNLVHQGVYVMNGGPCYETPAECTMLLNMGCDVVGMSTIPEVVIARHCGIQVFAVSLVTNISVLDVESDLKPNHEEVLATGAQRAELMQSWFEKIIEKLPKD | soluble |
| MHEYELNQDLLAENKRLAEKNREALRESGTVAVNIMGAIGSGKTLLIERTIERIGNEVKIGAMLGDVVSKADYERVRRFGIKAEAISTGKECHLDAHMIYHRLKKFSDCDLLLIENVGNLICPVDFDLGENYRVVMVSVTEGDDVVEKHPEIFRVADLIVINKVALAEAVGADVEKMKADAKLINPRAKIIEMDLKTGKGFEEWIDFLRGILNVHSDSGQN | not soluble |
| MHFADPREAREFLAAHPEVRSIELFLIDANGVPRGKLLHRDELLAVYESGRPLPSTILGLTINGDDVEETGLVWDVGDADCWTFPLPGSLTLQPWRQSPTGQVQVSMHPELGLPAAAGDPRHVLQRVIHSLQAEGFHPVMAVELEFYLLDRERDSDGRPLPALQMNGQRPRATQVYGVYELEQLQPFLDDLYAACEAQGLPARTAISEYAPGQVEITLQHRFDTLQAIDEGVRYKRLVKGVANRHGLQACFMAKPFADLSGSGLHLHVSLADAAGNNLFASEDPAGTPLLRQAIGGMKACLLESLALFCPNANSFRRFQANSYAPLAPTWGINNRTVSLRVPGGPASSRHIEHRICGADANPYLAAAALLAAVRLGIRERLDPGAPITGNGYAQATQALPSDWLTALRALEGSAWAREALGEDFLKIYLAIKQAEYRAFMGEVGE | not soluble |
| MHFPISMAVPARFTGPLPESCDVVVIGAGVIGVMTGWYLAERGFRVTVCEKGRVAGEQSSRNWGWIRQQGRDPDELPIMVESLRLWQGLAQSLGNPFGFRQTGVLYLANREEQLSQYEGWMIHAAAQGLDTRLLGRRELAERLPGAADLWQGGLFTASDARAEPWLAVPALAAGAAERGVTILEDCAVRALDLEGGRVAGVTTERGRIRAPEVVLAGGAWSSLFARAHGVNLPQLSVLSSVAQTEPLPEILPGAAADDAFAFRRREDGGYTIAGGSEHDFFIGPDAFRHALKYRKAVKKDFLSTHYRWLAPRDYPDGWNTPRTWSKGAPTPFEAMRVLNPAPNLATLSRAAAAFGRAFPGVGRPKIRATWAGMIDTMPDVVPVIDRAPSVPGLTIATGMSGHGFGIGPGVGRVVADLVAGRPVGHDLTRFRLSRFTDGSEITLGPSL | not soluble |
| MHFYKYGVLIDQLRDSFEWRVAFLDGSVSDHCCITVPSEKFNFPPTPGATVKAKFEHANSFLPSLVAQCGSFEWFRDVTVVNSKVVIFAIVHFSNECLERDPFKINGMDYSIIENENTDFQKIVLPTRVLQTSITSRSNLQNTDTPFIYRIGVCWEPISFENGVTVNWRYYADFPITPIFELYYRETTLPYIAESMVYGVLEGVVIAENDHGALFWTPKMGCAILPSTSLDTPMPSLGSVHVILVKRCIPENSFGFSCSYELLSSFRSTEWPNLKVITDQITRKVYIEANASCRSMMENQDFPSMNVPHIGKVFRGLQQYRDKLSAGHLYDFRMEFQKEEGSFVPTIVDLCLEEDEMVDCRVVYISNETSTYFAVLDPSSNSFDRFKQSIDYIAIPFRVLFCANGVHVKNEELLLNSYKVRVRVPRNRHDVVNAIHVEHVIQSPKDPAYFITNGSVWLRTTVKFQNASRYELLCPLLEQKIIDVNGVTAAMSLTQEFTVHAQFVLMERNVPVFVVRQLASTVREHPRTTNYPSRSLNLSYEVSGALARTNPNGQLSAADNNIVLINDSISLDHNLPDTGEYPTILNESSFERQLLFDNQSIADSASTSGDFILTESVYESSSAASTCTVIDRNDARFSALNDDSNILISESWLDSTNQHSETTMDTPEIITESFYESTHDQASSRASTVDRLASDVDKISIGRPDYSPPPRRRIFGYSTPGDRVRPRNSYGSSSSGSLNGRPKRRAPYGFRQIRNITPHNVLLRDIIYNNINNRKMFVEQNKNAILKCWNRLPLAQVTRTKKIFCTVIAVESIKFPPSFDDTCIKGLVRFAVVYDDMNVKNTSVVVPIGGNFNNLPKSFQLGDAYKVFHFSSYKDLICRIGGFSHGLNGELSRVAPVNCISNPETVNGRYGQRYLRCTVNAARPAISEIESDVFELWTVHGLPGFIIVEKVPLLMNHLNKEPINPDVHHQHMYTCIIEPLAGGPVEASILKDVKEGEDICIFWRLVVEFSDTVPLPRLKEKTDKVVPQIRTEPVQSGTFSVDDYGCWETLRINSILAQEKLDRMRAVGDPRVKMIDGPDLRPEIEVRKVDVNTRREKMFAAFDALLEKLPQLHSEGILGYVLEDDLRVKIKKLTPMNDNNHKFTFTFRNGSLEIGVNYLTDMLTRGKIYKVMNEMKKHVPLLKVLSDCIGLNTTYIKKTDAVKMMLHYMYRNELHTYL | not soluble |
| MHGIDLHTHSNISDGTLSPSCLVDAAIACGIHTLALTDHDTMDGLETAIQQAQGHDIQIISGAEISSQWSRPNTKKAYGVHIVALNMQNPEPLLDALVIQKNIRAERAQQICQILQQCTGQDIYTDVLLKVEGEPDRITRTHIAKALVEKEIVARPQQAFDRFLKEGKRAYVKFDGLNLADTIRIIHESEGFAILAHPTRYDLSSTNVRYLIELFAKMGGDAVELPPSVDPVSTRQMIDRIIQQFDLKVSIGSDFHGENMPWIKLGHTPQPNPHQTGIWESFR | not soluble |
| MHHHHHHLESSGDFSLLSSPINREKNGTEIVKFSIHPYKGTVIRLGEEILPFKVLEMDKNIALVEMAIPVYKDEKEIELKLSSPGFQNSSYRIRKPEELNEKLIALDKEGITHRFISRFKTGFQPKSVRFIDNTRLAIPLLEDEGMDVLDINSGQTVRLSPPEKYKKKLGFVETISIPEHNELWVSQMQANAVHVFDLKTLAYKATVDLTGKWSKILLYDPIRDLVYCSNWISEDISVIDRKTKLEIRKTDKIGLPRGLLLSKDGKELYIAQFSASNQESGGGRLGIYSMDKEKLIDTIGPPGNKRHIVSGNTENKIYVSDMCCSKIEVYDLKEKKVQKSIPVFDKPNTIALSPDGKYLYVSCRGPNHPTEGYLKKGLVLGKVYVIDTTTDTVKEFWEAGNQPTGLDVSPDNRYLVISDFLDHQIRVYRRDGF | soluble |
| MHHHHHHMGIVTGPIIDHSKENDVMNEAEQNAETVRRGYAAFNSGDMKTLTELFDENASWHTPGRSRIAGDHKGREAIFAQFGRYGGETGGTFKAVLLHVLKSDDGRVIGIHRNTAERGGKRLDVGCCIVFEFKNGRVIDGREHFYDLYAWDEFWR | soluble |
| MHHHHHHMNPERSERIEIPVLPLRDVVVYPHMVIPLFVGREKSIRCLEAAMDHDKKIMLVAQKEASTDEPGVNDLFTVGTVASILQMLKLPDGTVKVLVEGLQRARISALSDNGEHFSAKAEYLE | soluble |
| MHHHHHHPMEPEIKIVNVVVSTKIGDNIDLEEVAMILENAEYEPEQFPGLVCRLSVPKVALLIFRSGKVNCTGAKSKEEAEIAIKKIIKELKDAGIDVIENPEIKIQNMVATADLGIEPNLDDIALMVEGTEYEPEQFPGLVYRLDDPKVVVLIFGSGKVVITGLKSEEDAKRALKKILDTIKEVQEL | soluble |
